In patent US20250163155A1 (Bristol-Myers Squibb, published 2025):

Target: T1, cynomolgus LAG-3 (cynomolgus monkey)
T1 construct: whole, on cells; also called cynomolgus LAG-3 on transfected CHO cells
Experiment: flow cytometry on transfected CHO cells and activated cynomolgus T cells

B1: BMS-986016 (antibody, human IgG4 S228P, kappa, V domains shown)
VH: QVQLQQWGAGLLKPSETLSLTCAVYGGSFSDYYWNWIRQPPGKGLEWIGEINHRGSTNSNPSLKSRVTLSLDTSKNQFSLKLRSVTAADTAVYYCAFGYSDYEYNWFDPWGQGTLVTVSS
VL: EIVLTQSPATLSLSPGERATLSCRASQSISSYLAWYQQKPGQAPRLLIYDASNRATGIPARFSGSGSGTDFTLTISSLEPEDFAVYYCQQRSNWPLTFGQGTNLEIKR
notes: also called anti-LAG-3 antibody
B1 gave an EC50 of 21.5 to 34.3 nM.
